The results in this text go back to publication PMC7057995, “Structural basis of RNA polymerase I pre-initiation complex formation and promoter melting”.

For data set [1], the target named is RNA polymerase I;Rrn3;Core factor (CF) wild type: Rrn6/Rrn7/Rrn11;UAF … (Saccharomyces cerevisiae;Saccharomyces …, UniProt P10964;P22138;P07703;P46669;P50106;P20434;P20435;P28000;P20436;P32529;P22139;P40 …, |||||). Nature of the data set: size exclusion chromatography; complete early PIC, stable throughout SEC; EMSA: 20 mM HEPES/KOH pH 7.8, 10% glycerol, 200 mM KCl, 1 mM MgCl2, 0.1 mg/ml BSA, 1 mM DTT, 30 min, temperature not stated; 6% native gel, 0.5x TBE. For orientation: In gel filtration, larger molecules generally elute earlier.

Another data set deals with CF with Rrn7 Δα4a (Saccharomyces cerevisiae, UniProt P32786;P40992;Q04712 1-894;1-208+221-514;1-507, internal_change). Kind of data set: EMSA; 0.2 pmol DNA; 0.25-1 pmol CF; binding not impaired; EMSA: 20 mM HEPES/KOH pH 7.8, 10% glycerol, 200 mM KCl, 1 mM MgCl2, 0.1 mg/ml BSA, 1 mM DTT, 30 min, temperature not stated; 6% native gel, 0.5x TBE. The conditions noted are these: protein: recombinant; tags: His (Ni-NTA purified); copies: 1;1;1; label: NTS -3 Atto647N; TS -5 Cy3; blunt. (Mobility shift assays separate free from complexed probe on a gel.)
CF with Rrn7 Δα4a, sequence (P32786 whole entry, stated change not applied, chain 1 of 3): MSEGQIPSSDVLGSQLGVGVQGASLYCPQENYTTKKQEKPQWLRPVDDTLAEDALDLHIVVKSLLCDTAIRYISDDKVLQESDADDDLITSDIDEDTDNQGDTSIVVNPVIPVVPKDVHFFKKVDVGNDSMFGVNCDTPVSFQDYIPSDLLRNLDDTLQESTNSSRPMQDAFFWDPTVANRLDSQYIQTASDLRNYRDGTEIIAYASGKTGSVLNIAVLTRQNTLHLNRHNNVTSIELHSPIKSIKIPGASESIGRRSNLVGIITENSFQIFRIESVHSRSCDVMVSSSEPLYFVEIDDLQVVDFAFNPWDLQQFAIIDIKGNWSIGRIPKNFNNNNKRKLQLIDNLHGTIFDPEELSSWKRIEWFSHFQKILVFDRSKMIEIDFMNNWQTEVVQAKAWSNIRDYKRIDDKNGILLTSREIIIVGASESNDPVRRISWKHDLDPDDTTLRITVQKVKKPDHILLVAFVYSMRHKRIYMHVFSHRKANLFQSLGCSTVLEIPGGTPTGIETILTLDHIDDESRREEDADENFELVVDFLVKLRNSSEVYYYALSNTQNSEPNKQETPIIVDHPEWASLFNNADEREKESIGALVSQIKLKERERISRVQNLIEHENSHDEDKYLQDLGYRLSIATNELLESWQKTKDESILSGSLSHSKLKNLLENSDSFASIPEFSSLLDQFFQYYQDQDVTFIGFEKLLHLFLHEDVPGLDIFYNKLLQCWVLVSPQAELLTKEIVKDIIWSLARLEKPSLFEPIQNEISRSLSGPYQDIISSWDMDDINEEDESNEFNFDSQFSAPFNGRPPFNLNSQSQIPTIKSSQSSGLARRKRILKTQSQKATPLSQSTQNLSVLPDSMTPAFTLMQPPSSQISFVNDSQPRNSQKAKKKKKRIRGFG
CF with Rrn7 Δα4a, sequence (P40992 other isoform, or with tags, fused parts or gaps | mutant, chain 2 of 3): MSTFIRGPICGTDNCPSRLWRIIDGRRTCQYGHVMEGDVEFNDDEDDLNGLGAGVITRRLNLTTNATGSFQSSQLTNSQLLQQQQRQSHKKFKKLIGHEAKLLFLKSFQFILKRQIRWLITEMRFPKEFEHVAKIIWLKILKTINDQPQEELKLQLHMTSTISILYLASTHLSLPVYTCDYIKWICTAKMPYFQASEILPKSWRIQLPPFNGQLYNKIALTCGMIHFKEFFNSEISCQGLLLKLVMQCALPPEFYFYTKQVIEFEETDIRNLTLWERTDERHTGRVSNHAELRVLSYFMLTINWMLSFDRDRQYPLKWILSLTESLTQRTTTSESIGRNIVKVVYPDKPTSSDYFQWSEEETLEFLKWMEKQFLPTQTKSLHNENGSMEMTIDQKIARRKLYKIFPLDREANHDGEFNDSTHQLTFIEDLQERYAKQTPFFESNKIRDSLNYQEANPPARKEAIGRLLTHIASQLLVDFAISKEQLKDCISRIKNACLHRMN
CF with Rrn7 Δα4a, sequence (Q04712 whole entry, stated change not applied, chain 3 of 3): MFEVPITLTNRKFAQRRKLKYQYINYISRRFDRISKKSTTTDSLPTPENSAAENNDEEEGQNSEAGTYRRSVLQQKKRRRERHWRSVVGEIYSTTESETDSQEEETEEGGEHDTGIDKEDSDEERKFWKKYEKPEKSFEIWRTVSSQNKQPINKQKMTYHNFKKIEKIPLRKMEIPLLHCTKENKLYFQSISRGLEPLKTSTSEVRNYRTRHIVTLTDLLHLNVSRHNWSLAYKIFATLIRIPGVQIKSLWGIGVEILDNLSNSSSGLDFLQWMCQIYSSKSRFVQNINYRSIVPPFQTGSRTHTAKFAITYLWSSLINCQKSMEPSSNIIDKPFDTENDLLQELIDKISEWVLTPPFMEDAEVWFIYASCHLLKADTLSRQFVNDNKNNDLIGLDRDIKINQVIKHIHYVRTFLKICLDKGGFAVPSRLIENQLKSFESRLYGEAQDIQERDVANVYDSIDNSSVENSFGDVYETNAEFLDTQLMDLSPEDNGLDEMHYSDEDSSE

In another data set the target is CF with Rrn7 Δloop α7-α8 (Saccharomyces cerevisiae, UniProt P32786;P40992;Q04712 1-894;1-286+298-514;1-507, internal_change). Described as above. The conditions noted are these: protein: recombinant; tags: His (Ni-NTA purified); copies: 1;1;1; label: NTS -3 Atto647N; TS -5 Cy3; blunt.
CF with Rrn7 Δloop α7-α8, sequence (P32786 whole entry, stated change not applied, chain 1 of 3): as the sequence (P32786 whole entry, stated change not applied, chain 1 of 3) above
CF with Rrn7 Δloop α7-α8, sequence (P40992 other isoform, or with tags, fused parts or gaps | mutant, chain 2 of 3): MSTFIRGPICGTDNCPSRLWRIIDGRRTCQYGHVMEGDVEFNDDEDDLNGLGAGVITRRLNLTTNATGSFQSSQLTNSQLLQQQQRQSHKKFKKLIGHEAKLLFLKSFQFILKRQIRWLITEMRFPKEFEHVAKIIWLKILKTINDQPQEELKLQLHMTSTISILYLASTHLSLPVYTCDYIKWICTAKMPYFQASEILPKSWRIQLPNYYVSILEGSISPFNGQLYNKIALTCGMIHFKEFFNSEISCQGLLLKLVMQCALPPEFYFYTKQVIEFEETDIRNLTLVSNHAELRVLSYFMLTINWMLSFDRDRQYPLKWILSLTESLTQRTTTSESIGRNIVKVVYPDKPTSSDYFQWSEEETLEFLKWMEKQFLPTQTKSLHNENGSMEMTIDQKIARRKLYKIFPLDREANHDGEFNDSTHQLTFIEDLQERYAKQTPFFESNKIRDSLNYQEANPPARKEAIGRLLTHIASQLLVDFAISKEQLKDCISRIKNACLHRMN
CF with Rrn7 Δloop α7-α8, sequence (Q04712 whole entry, stated change not applied, chain 3 of 3): as the sequence (Q04712 whole entry, stated change not applied, chain 3 of 3) above

B1: rDNA promoter -155 to +8 (PIC scaffold; ID 4693/4694) (dsDNA)
DNA 1: AGCTTAAATTGAAGTTTTTCTCGGCGAGAAATACGTAGTTAAGGCAGAGCGACAGAGAGGGCAAAAGAAAATAAAAGTAAGATTTTAGTTTGTAATGGGAGGGGGGGTTTAGTCATGGAGTACAAGTGTGAGGAAAAGTAGTTGGGAGGTACTTCATGCGAAA
DNA 2: TTTCGCATGAAGTACCTCCCAACTACTTTTCCTCACACTTGTACTCCATGACTAAACCCCCCCTCCCATTACAAACTAAAATCTTACTTTTATTTTCTTTTGCCCTCTCTGTCGCTCTGCCTTAACTACGTATTTCTCGCCGAGAAAAACTTCAATTTAAGCT
In the case of B1, the binding result in data set [1] is reported as “binds”.

B2: rDNA promoter -83 to +26 (EMSA; ID 4691/4692) (dsDNA)
DNA 1: AAAAGTAAGATTTTAGTTTGTAATGGGAGGGGGAATTTAGTCATGGAGTACAAGTGTGAGGAAAAGTAGTTGGGAGGTACTTCATACCAAAGGGGTTCAACACAAGGGT
DNA 2: ACCCTTGTGTTGAACCCCTTTGGTATGAAGTACCTCCCAACTACTTTTCCTCACACTTGTACTCCATGACTAAATTCCCCCTCCCATTACAAACTAAAATCTTACTTTT
Regarding B2, the binding result with CF with Rrn7 Δα4a and in the data set with CF with Rrn7 Δloop α7-α8 was “binds” in each case.
